Data published in the supplement of paper PMC12042874.
± gives the uncertainty stated by the source.

assay: amyloid nucleation score (Sup35N fusion, yeast selection) (log enrichment); library NNK3; higher = more nucleation; inactive = no reads after selection
Summary of the method: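 Nucleation score is defined as the DiMSum log enrichment of output over input reads, with centring on the mode score of non-aggregating sequences. A minimum of 100 input reads was required for each sequence. Reads came from Illumina sequencing of plasmid inserts from psi-negative yeast expressing Sup35N fused to peptides of 20 random codons, induced with 100 μM copper sulfate for 24 hours and grown 7 days at 30°C on medium lacking adenine and uracil.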

Substance	amyloid nucleation score
ETGDI	1.64 ± 0.087
ETVDSFVM	inactive
EVFHIRMSVF	-0.577 ± 2.4
EVIVVKGHGVHIVFCVGSAS	inactive
EVKSDVMKLFNCVFSCPLTF	2.38 ± 0.073
EVLEFVSNGGMVTEMGP	inactive
EVNWSIIRGWVEISYTVPEL	inactive
EVRPCNMLGLRNIGRGYREN	inactive
EVVKLVR	inactive
EVYEMNSIRMRSSELSME	inactive
EWFCLCWT	inactive
EWGTWSTY	inactive
EWIGVVNVRNDPPSGC	inactive
EYAKMSLCPSYRFCVLFASW	inactive
EYELESESKCPLDFAFIKKG	inactive
EYKAPREFPSTNCIHFNLMT	inactive
EYRLVKFHSPLFQRIKSIVA	inactive
EYTLPRPCRLLIFSDQYSNA	inactive
FAFKLWRKVQYVFHLFYPAR	0.342 ± 0.69
FALTIGSFSRMNHTVPNPFE	inactive
FCAVALFFNTSVSFIDRSLP	1.66 ± 0.083
FCFLLKALTYHLS	-0.067 ± 0.75
FCKLYINQYIYHDSVVVIVG	2.41 ± 0.06
FCLNYDGGWWCRMSCVYNQG	inactive
FCLRLTYVRS	0.757 ± 0.22
FCLVLGVWNLVPPGVKSMMQ	0.889 ± 0.14
FCRLGIRSVFIYFKVTSLIV	0.049 ± 0.47

Substance	amyloid nucleation score
FCVEIMSLSVRGCWGYSFGT	inactive
FCWVLCTP	inactive
FCYVSCLS	inactive
FDDPHGTVTCED	-0.176 ± 0.98
FDGKMVYFSAEFSFDKFLDR	1.74 ± 0.11
FDLPCSYRCSMTYCYGVNGI	1.02 ± 0.18
FDLVFLLYMGMTQ	inactive
FDSFLWLTMNWIELIGNILV	inactive
FDWIE	inactive
FDYLLYQLCYVYRTYKTVRR	inactive
FDYWCKVMSHEYYVEEPNIY	inactive
FEKGSFLDRTESSHIGGLMH	inactive
FELVIYQIVRIIVRSLADIS	inactive
FERISRSFAYIDIRHIICMF	1.56 ± 0.11
FEWLWIFWYNLFWLWGNYSI	inactive
FFASSIYQRALYTVILSSPT	inactive
FFCFLDYDYSIFEQVNEGLS	inactive
FFCGFRKTAASHFLFLVKDW	inactive
FFECSRRSSVLVQMS	inactive
FFLRSGCTIWTNSK	inactive
FFPCTGVRHSRDIAVV	inactive
FFRDQLRRLYLSSALMQFRM	inactive
FFRNDCGHVFSYVAGSES	inactive
FFRTGFLVGNSSEYYMQY	0.215 ± 0.46
FFSFTISMAWKGQVTELKCQ	inactive
FFVRH	inactive
FFVTR	inactive

Substance	amyloid nucleation score
FFYNDVETVCNVICPKVYSD	inactive
FGELS	inactive
FGGLWLICSVVYTLNCRSMV	1.79 ± 0.081
FGGSILTSYINGRGSAGLNW	0.797 ± 0.22
FGHYRYEFCELSGHGMGVDA	inactive
FGINDCVIRV	inactive
FGKRQSAMLLDLNSGWSNLD	-0.42 ± 1.3
FGLYYRLPNNCNKTGNQFTV	inactive
FGQLGVVNGFTELWQRLCSW	inactive
FGQSLAEIRFLFIPIDKMRR	inactive
FGRTHAYSLFQKKSGFLLTP	inactive
FGSFVRSMALESYLNYINAA	inactive
FGTCLNLYL	1.3 ± 0.11
FGTLFSTVFRVLRFNRISAP	inactive
FGVFVWEVVVGNMLLPHMVN	inactive
FGYVQVTKDPSFMCNYGMQS	inactive
FGYYTWTAYER	inactive
FHGYRLVYPSDYPWCLSSVH	inactive
FHNCLGTNKNGVLLNGMVWN	inactive
FHSWIFQTISLPGQGYRLQ	inactive
FHWYFAVSYTSYNMLSVWFV	inactive
FIANGSDILADLFLHTSFHG	inactive
FIASNASNCWYLMFVAKLYG	inactive
FICVCSNWGFIQNMITAPDW	2.77 ± 0.074
FIDQVDIVVCWSTWAI	inactive
FIEVEVWRESSR	inactive
